Laboratory results as given in patent US20050037969A1 (ARBOR VITA, published 2005).
Ends that are not written are not given here. * marks the point of attachment. Biotin = O=C1N[C@H]2[C@H](CS[C@H]2CCCCC(=O)*)N1

Assays:
[1] = target: T1, GST-PSD95 fusion protein (PDZ domains 1-3) (human, UniProt P31016 56-395 (rat entry)); assay: G assay: biotinylated peptide on plate-bound GST-PDZ fusion, OD 450 nm
T1 construct: also called human post-synaptic density protein 95; not shown: glutathione S-transferase encoded by vector pGEX-3X (Pharmacia)
T1 sequence (P31016 other isoform, or with tags, fused parts or gaps): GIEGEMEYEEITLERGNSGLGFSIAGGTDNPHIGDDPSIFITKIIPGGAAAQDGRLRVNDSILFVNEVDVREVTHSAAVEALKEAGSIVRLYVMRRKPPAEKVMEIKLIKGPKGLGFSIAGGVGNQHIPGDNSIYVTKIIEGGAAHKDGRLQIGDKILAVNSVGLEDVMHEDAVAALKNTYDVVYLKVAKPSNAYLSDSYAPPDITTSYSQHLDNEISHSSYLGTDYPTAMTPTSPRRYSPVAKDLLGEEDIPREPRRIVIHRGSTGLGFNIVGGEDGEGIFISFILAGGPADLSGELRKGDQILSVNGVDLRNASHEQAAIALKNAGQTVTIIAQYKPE

[2] = target: T2, KIAA0807 (PDZ domain)-GST fusion protein (human, UniProt Q6P0Q8 1104-1192); assay: G assay competition against 10 uM DOCK2 20-mer; 8-mer DOCK2 peptide competing against 10 uM DOCK2 20-mer
T2 construct: also called K807; KIAA807; not shown: glutathione S-transferase encoded by vector pGEX-3X (Pharmacia)
T2 sequence: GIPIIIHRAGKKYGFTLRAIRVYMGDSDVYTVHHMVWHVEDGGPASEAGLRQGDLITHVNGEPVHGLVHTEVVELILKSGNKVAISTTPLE

[3] = target: T1, GST-PSD95 fusion protein (PDZ domains …); assay: G assay competition on plate-bound GST-PSD95, competitor at 100 uM; blocked ligands: biotinylated Clasp 2 and CD46 (20 uM), Fas and KV1.3 (10 uM) peptides
[4] = target: T2, KIAA0807 (PDZ domain)-GST fusion protein; assay: G assay competition against 1 uM BLR-1 20-mer
[5] = target: T3, GST-41.8 kD protein (KIAA0751) PDZ domain fusion protein (Mus musculus (Mouse), UniProt Q9EQZ7 682-763); assay: G assay competition on plate-bound GST-41.8kD; blocked ligand: 20 uM biotinylated CD49E peptide
T3 construct: also called 41 kd; hypoth; not shown: glutathione S-transferase encoded by vector pGEX-3X (Pharmacia)
T3 sequence: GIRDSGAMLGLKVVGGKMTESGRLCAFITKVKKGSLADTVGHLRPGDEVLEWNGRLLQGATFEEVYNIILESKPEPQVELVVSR

[6] = target: T2, KIAA0807 (PDZ domain)-GST fusion protein; assay: G assay competition against 10 uM DOCK2 20-mer; acetyl-STDL competing against 10 uM DOCK2 20-mer

B1: 30 (peptide)
peptide: Biotin-TIYENLAPVTTFGKTIA
notes: Not the same peptide as m50 (AA19L, ending GYIA); the key gives AA55L for peptide 30; also called CD148
B1: no binding [1].

Work on PDSLSTDL (also called DOCK2 8-mer) [8-mer peptide corresponding to the C-terminus of DOCK2] yielded an IC50 [2] of 250 µM.

B2: Fas (CD95) 8-mer competitor peptide RNEIQSLV (unlabeled) (peptide)
peptide: RNEIQSLV
notes: also called FAS-8-mer; 8-mer peptide corresponding to the C-terminus of CD95 (Fas)
B2: binds [3].

In the case of Ac-LTTF (it is an N-acetyl tetrapeptide) [acetyl-LTTF], the IC50 [4] is reported as 1 µM.

ATSDA (also called 5-mer CD49E peptide ATSDA) [CD49E 5mer]: binds [5].

REVKFTSL [CD46 8-mer competitor peptide REVKFTSL (unlabeled)]: binds [3].

Ac-STDL (it is an N-acetyl tetrapeptide) [acetyl-STDL] gave an IC50 [6] of under 250 µM.

TTNNNPNSAVNIKKIFTDV (also called KV13 peptide) [unlabeled 19-mer having the sequence of the C-terminus of KV1.3 (non-biotinylated AA33L)]: binds [3].

In the case of NATSLTTF (also called BLR-1 8-mer) [8-mer peptide corresponding to the C-terminus of BLR-1], the IC50 [4] is reported as over 100 µM.
